For assay [1], the target named is bovine histone H1, labelled with NT-647-NHS dye (bovine) (UniProt P02253). Kind of assay: MST.
The target of assay [2] is N-terminal cleavage product of SET (human, UniProt Q01105-2 17-175). Put plainly: SEC. In general terms: In gel filtration, larger molecules generally elute earlier.

bovine histone H1, labelled with NT-647-NHS dye (bovine), sequence (P02253 whole entry): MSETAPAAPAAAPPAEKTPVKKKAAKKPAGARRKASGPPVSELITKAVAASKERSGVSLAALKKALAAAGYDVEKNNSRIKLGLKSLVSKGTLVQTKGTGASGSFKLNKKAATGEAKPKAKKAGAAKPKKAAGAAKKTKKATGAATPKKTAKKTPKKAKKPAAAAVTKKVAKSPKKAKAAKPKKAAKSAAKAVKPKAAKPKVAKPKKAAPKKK

As usually defined, the Kd is the constant that tells how readily two partners part at equilibrium. “SET-FL after cleavage by legumain (cleaved SET-FL) (from UniProt Q01105-2 17-175; Q01105-2 176-277) (complex)” yielded a Kd in assay [1] of 3000 nM. The same measure, in the same setting: the value for “full-length SET (SET-FL, 2–277) (from UniProt Q01105-2 2-277) (natural protein)” was 3000 nM.

B1: C-terminal cleavage product of SET-FL (domain or fragment, human, UniProt Q01105-2 176-277, looked up)
chain: KASRKRQHEEPESFFTWFTDHSDAGADELGEVIKDDIWPNPLQYYLVPDMDDEEGEGEEDDDDDEEEEGLEDIDEEGDEDEGEEDEDDDEGEEGEEDEGEDD
B1: the binding result in assay [2] is “binds”. On the same count and under the same terms, the value for KASRKRQHEEPESFFTWFTDHSDAGADELGEVIKDDIWPNPLQYYLVPDM (domain or fragment, human, UniProt Q01105-2 176-225, looked up) [C-terminal cleavage product of SETΔC] was “binds”.

The values are drawn from article doi:10.1101/2025.01.28.635311 (bioRxiv, 2025).
